Test results from patent publication US20170015742A1 (published 2017).

Tests used:
human VEGF-A = biological target: T1, human VEGF-A (human, UniProt P15692-4 27-191, limits assumed); assay: SPR (Biacore), antibody captured by anti-human Fc, VEGF-A injected
T1 construct: also called huVEGF-A
Description: (§1) For example, approximately 9000 RU of goat anti-human Fc specific polyclonal antibody (Thermo Fisher Scientific Inc., Rockford, Ill.) diluted in 10 mM sodium acetate (pH 4.5) is directly immobilized across a CM5 research grade biosensor chip using a standard amine coupling kit according to manufacturer's instructions and procedures at 25 μg/ml. Unreacted moieties on the biosensor surface were blocked with ethanolamine. For kinetic analysis, rate equations derived from the 1:1 Langmuir binding model were fitted simultaneously to multiple antigen injections (using global fit analysis) with the use of Scrubber 2 (BioLogic Software), Biacore Biaevaluation 4.0.1 software or Biacore T100 Evaluation software. Purified antibodies or DVD-Ig molecules were diluted in running buffer for capture across goat anti-human Fc reaction surfaces. Antibodies or DVD-Ig molecules to be captured as a ligand (1 μg/ml) were injected over reaction matrices at a flow rate of 10 μl/minute. During the assay, all measurements were referenced against the capture surface alone (i.e., with no captured antibody or DVD-Ig molecule). […] The equilibrium dissociation constant KD (M) of the reaction between antibodies and the target antigen was then calculated from the kinetic rate constants by the following formula: KD=Koff/Kₒₙ. Binding was recorded as a function of time and kinetic rate constants were calculated.

Human PDGF-BB = biological target: T2, Human PDGF-BB (human, UniProt P01127 82-190); assay: SPR (Biacore), antibody captured via anti-human Fc, antigen in solution
T2 construct: Recombinant human PDGF-BB, a homodimer of two B chains; also called hPDGF-BB; huPDGF-BB
Description: as §1

T2 sequence (P01127 82-190 limits assumed): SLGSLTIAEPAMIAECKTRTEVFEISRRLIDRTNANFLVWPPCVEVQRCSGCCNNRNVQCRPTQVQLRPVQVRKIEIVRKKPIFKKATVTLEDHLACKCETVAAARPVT
T1 sequence (P15692 other isoform, or with tags, fused parts or gaps limits assumed): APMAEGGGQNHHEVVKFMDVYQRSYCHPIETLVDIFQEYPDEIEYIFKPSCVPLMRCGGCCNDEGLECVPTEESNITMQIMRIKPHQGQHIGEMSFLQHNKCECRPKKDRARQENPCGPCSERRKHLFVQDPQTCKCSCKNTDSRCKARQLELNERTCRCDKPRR

Row | Binder | Kd (human VEGF-A) [nM] | kon (human VEGF-A) [M⁻¹ s⁻¹] | Kd (Human PDGF-BB) [nM] | kon (Human PDGF-BB) [M⁻¹ s⁻¹]
1 | hBEW-1B10.1 (antibody, V domains shown, Humanized IgG made from pHybE vectors in HEK293 cells) VH: EVQLVESGGGLVQPGGSLRLSCAASGFSFSKYDMAWFRQAPGKGLEWVASITTSGVGTYYRDSVKGRFTVSRDNAKSTLYLQMNSLRAEDTAVYYCARGYGAMDAWGQGTTVTVSS VL: DIQMTQSPSSLSASVGDRVTITCKASQDIDDYLSWYQQKPGKSPKLVIYAATRLADGVPSRFSGSGSGTDYTLTISSLQPEDFATYYCLQSSSTPWTFGGGTKVEIK | 0.018 | 7.6e+06 |  | 
2 | hBDI-9E8.1 (antibody, V domains shown, Humanized IgG) VH: EVTLRESGPALVKPTQTLTLTCTFSGFSLSTYGMGVGWIRQPPGKALEWLANIWWDDDKYYNPSLKNRLTISKDTSKNQVVLTMTNMDPVDTATYYCARIESIGTTYSFDYWGQGTMVTVSS VL: NFMLTQPHSVSESPGKTVTISCERSSGDIGDSYVSWYQQRPGSSPTTVIYADDQRPSGVPDRFSGSIDSSSNSASLTISGLKTEDEADYYCQSYDINIDIVFGGGTKLTVL |  |  | ≤ 0.56 | ≥ 1e+07
3 | hBDI-9E8.10 (antibody, V domains shown, Humanized IgG) VH: EVTLRESGPALVKPTQTLTLTCTFSGFSLSTYGMGVGWIRQPPGKALEWLANIWWDDDKYYNPSLKNRLTISKDTSKNQAVLTITNMDPVDTATYYCARIESIGTTYSFDYWGQGTTVTVSS VL: DFQLTQSPSSLSASVGDRVTITCERSSGDIGDSYVSWYQQKPGKAPKNVIYADDQRPSGVPSRFSGSGSGNSASLTISSLQPEDFATYYCQSYDINIDIVFGQGTKVEIK |  |  | ≤ 0.18 | ≥ 1e+07
4 | hBDI-9E8.9 (antibody, V domains shown, Humanized IgG) VH: EVTLRESGPALVKPTQTLTLTCTFSGFSLSTYGMGVGWIRQPPGKALEWLANIWWDDDKYYNPSLKNRLTISKDTSKNQAVLTITNMDPVDTATYYCARIESIGTTYSFDYWGQGTTVTVSS VL: DFVLTQSPDSLAVSLGERATINCERSSGDIGDSYVSWYQQKPGQPPKNVIYADDQRPSGVPDRFSGSGSGNSASLTISSLQAEDVAVYFCQSYDINIDIVFGGGTKVEIK |  |  | ≤ 0.15 | ≥ 1e+07
5 | hBDI-9E8.3 (antibody, V domains shown, Humanized IgG) VH: EVTLRESGPALVKPTQTLTLTCTFSGFSLSTYGMGVGWIRQPPGKALEWLANIWWDDDKYYNPSLKNRLTISKDTSKNQVVLTMTNMDPVDTATYYCARIESIGTTYSFDYWGQGTMVTVSS VL: EIVLTQSPGTLSLSPGERATLSCERSSGDIGDSYVSWYQQKPGQAPRLLIYADDQRPSGIPDRFSGSGSGTDFTLTISRLEPEDFAVYYCQSYDINIDIVFGGGTKVEIK |  |  | ≤ 0.065 | ≥ 1e+07
6 | hBDI-5H1.1 (antibody, V domains shown, Humanized IgG) VH: EVTLRESGPALVKPTQTLTLTCTFSGFSLSTFGMGVGWIRQPPGKALEWLANIWWDDDKYYNPSLKNRLTISKDTSKNQVVLTMTNMDPVDTATYYCARISTGISSYYVMDAWGQGTTVTVSS VL: NFMLTQPHSVSESPGKTVTISCERSSGDIGDTYVSWYQQRPGSSPTTVIYGNDQRPSGVPDRFSGSIDSSSNSASLTISGLKTEDEADYYCQSYDSDIDIVFGGGTKLTVL |  |  | ≤ 0.41 | ≥ 1e+07
7 | hBDI-5H1.2 (antibody, V domains shown, Humanized IgG) VH: EVTLRESGPALVKPTQTLTLTCTFSGFSLSTFGMGVGWIRQPPGKALEWLANIWWDDDKYYNPSLKNRLTISKDTSKNQVVLTMTNMDPVDTATYYCARISTGISSYYVMDAWGQGTTVTVSS VL: NFMLTQPHSVSESPGKTVTISCERSSGDIGDTYVSWYQQRPGSPPTNVIYGNDQRPSGVPDRFSGSIDSSSNSASLTISGLKTEDEADYFCQSYDSDIDIVFGGGTKLTVL |  |  | ≤ 0.19 | ≥ 1e+07
8 | hBDI-9E8.4 (antibody, V domains shown, Humanized IgG) VH: EVTLRESGPALVKPTQTLTLTCTFSGFSLSTYGMGVGWIRQPPGKALEWLANIWWDDDKYYNPSLKNRLTISKDTSKNQVVLTMTNMDPVDTATYYCARIESIGTTYSFDYWGQGTMVTVSS VL: EFVLTQSPGTLSLSPGERATLSCERSSGDIGDSYVSWYQQKPGQAPRLVIYADDQRPSGIPDRFSGSGSGTDFTLTISRLEPEDFAVYYCQSYDINIDIVFGGGTKVEIK |  |  | ≤ 0.021 | > 1e+07
9 | hBDI-9E8.6 (antibody, V domains shown, Humanized IgG) VH: EVTLRESGPALVKPTQTLTLTCTFSGFSLSTYGMGVGWIRQPPGKGLEWLANIWWDDDKYYNPSLKNRLTISKDTSKNQAVLTITNMDPVDTATYYCARIESIGTTYSFDYWGQGTMVTVSS VL: NFMLTQPHSVSESPGKTVTISCERSSGDIGDSYVSWYQQRPGSPPTNVIYADDQRPSGVPDRFSGSIDSSSNSASLTISGLKTEDEADYFCQSYDINIDIVFGGGTKLTVL |  |  | ≤ 0.21 | ≥ 1e+07
10 | hBDI-9E8.5 (antibody, V domains shown, Humanized IgG) VH: EVTLRESGPALVKPTQTLTLTCTFSGFSLSTYGMGVGWIRQPPGKGLEWLANIWWDDDKYYNPSLKNRLTISKDTSKNQAVLTITNMDPVDTATYYCARIESIGTTYSFDYWGQGTMVTVSS VL: NFMLTQPHSVSESPGKTVTISCERSSGDIGDSYVSWYQQRPGSSPTTVIYADDQRPSGVPDRFSGSIDSSSNSASLTISGLKTEDEADYYCQSYDINIDIVFGGGTKLTVL |  |  | ≤ 0.21 | ≥ 1e+07
11 | hBDI-9E8.7 (antibody, V domains shown, Humanized IgG) VH: EVTLRESGPALVKPTQTLTLTCTFSGFSLSTYGMGVGWIRQPPGKGLEWLANIWWDDDKYYNPSLKNRLTISKDTSKNQAVLTITNMDPVDTATYYCARIESIGTTYSFDYWGQGTMVTVSS VL: EIVLTQSPGTLSLSPGERATLSCERSSGDIGDSYVSWYQQKPGQAPRLLIYADDQRPSGIPDRFSGSGSGTDFTLTISRLEPEDFAVYYCQSYDINIDIVFGGGTKVEIK |  |  | ≤ 0.045 | ≥ 1e+07
12 | hBDI-9E8.2 (antibody, V domains shown, Humanized IgG) VH: EVTLRESGPALVKPTQTLTLTCTFSGFSLSTYGMGVGWIRQPPGKALEWLANIWWDDDKYYNPSLKNRLTISKDTSKNQVVLTMTNMDPVDTATYYCARIESIGTTYSFDYWGQGTMVTVSS VL: NFMLTQPHSVSESPGKTVTISCERSSGDIGDSYVSWYQQRPGSPPTNVIYADDQRPSGVPDRFSGSIDSSSNSASLTISGLKTEDEADYFCQSYDINIDIVFGGGTKLTVL |  |  | ≤ 0.51 | ≥ 1e+07

Next, values leading:

Row | Kd (human VEGF-A) [nM] | kon (human VEGF-A) [M⁻¹ s⁻¹] | Kd (Human PDGF-BB) [nM] | kon (Human PDGF-BB) [M⁻¹ s⁻¹] | Binder
13 | 0.02 | 7.5e+06 |  |  | hBEW-1B10.2 (antibody, V domains shown, Humanized IgG made from pHybE vectors in HEK293 cells) VH: EVQLVESGGGLVQPGGSLRLSCAASGFSFSKYDMAWFRQAPGKGLEWVASITTSGVGTYYRDSVKGRFTVSRDNAKNSLYLQMNSLRAEDTAVYYCARGYGAMDAWGQGTTVTVSS VL: DIQMTQSPSSLSASVGDRVTITCKASQDIDDYLSWYQQKPGKSPKLVIYAATRLADGVPSRFSGSGSGTDYTLTISSLQPEDFATYYCLQSSSTPWTFGGGTKVEIK
14 |  |  | ≤ 0.074 | ≥ 1e+07 | hBDI-9E8.11 (antibody, V domains shown, Humanized IgG) VH: EVQLVESGGGLVQPGGSLRLSCAFSGFSLSTYGMGVGWIRQAPGKGLEWLANIWWDDDKYYNPSLKNRLTISKDTSKNQAYLQINSLRAEDTAVYYCARIESIGTTYSFDYWGQGTLVTVSS VL: DFVLTQSPDSLAVSLGERATINCERSSGDIGDSYVSWYQQKPGQPPKNVIYADDQRPSGVPDRFSGSGSGNSASLTISSLQAEDVAVYFCQSYDINIDIVFGGGTKVEIK
15 |  |  | ≤ 0.21 | ≥ 1e+07 | hBDI-9E8.12 (antibody, V domains shown, Humanized IgG) VH: EVQLVESGGGLVQPGGSLRLSCAFSGFSLSTYGMGVGWIRQAPGKGLEWLANIWWDDDKYYNPSLKNRLTISKDTSKNQAYLQINSLRAEDTAVYYCARIESIGTTYSFDYWGQGTLVTVSS VL: DFQLTQSPSSLSASVGDRVTITCERSSGDIGDSYVSWYQQKPGKAPKNVIYADDQRPSGVPSRFSGSGSGNSASLTISSLQPEDFATYYCQSYDINIDIVFGQGTKVEIK
16 | 0.0032 | 1.3e+07 |  |  | hBEW-9E10.3 (antibody, V domains shown, Humanized IgG made from pHybE vectors in HEK293 cells) VH: EVQLVQSGAEVKKPGSSVKVSCKASGYTFTNYGMYWVRQAPGQGLEWMGWIDTETGRPTYADDFKGRFTFTADKSTSTAYMELSSLRSEDTAVYYCARWSGDTTGIRGPWFAYWGQGTLVTVSS VL: DIRMTQSPSSLSASVGDRVTIECLASEDIYSDLAWYQQKPGKSPKLLIYNANGLQNGVPSRFSGSGSGTDYSLTISSLQPEDVATYFCQQYNYFPGTFGQGTKLEIK
17 | 0.015 | 1.6e+07 |  |  | hBEW-9E10.5 (antibody, V domains shown, Humanized IgG made from pHybE vectors in HEK293 cells) VH: EIQLVQSGAEVKKPGSSVKVSCKASGYTFTNYGMYWVKQAPGQGLEYMGWIDTETGRPTYADDFKGRFTFTADKSTSTAYMELSSLRSEDTAVYFCARWSGDTTGIRGPWFAYWGQGTLVTVSS VL: DIRMTQSPSSLSASVGDRVTITCLASEDIYSDLAWYQQKPGKSPKLLIYNANGLQNGVPSRFSGSGSGTDYTLTISSLQPEDVATYFCQQYNYFPGTFGQGTKLEIK
18 | 0.0026 | 1.5e+07 |  |  | hBEW-9E10.6 (antibody, V domains shown, Humanized IgG made from pHybE vectors in HEK293 cells) VH: EVQLVQSGAEVKKPGSSVKVSCKASGYTFTNYGMYWVRQAPGQGLEWMGWIDTETGRPTYADDFKGRFTFTADKSTSTAYMELSSLRSEDTAVYYCARWSGDTTGIRGPWFAYWGQGTLVTVSS VL: DIRMTQSPSSLSASVGDRVTITCLASEDIYSDLAWYQQKPGKSPKLLIYNANGLQNGVPSRFSGSGSGTDYTLTISSLQPEDVATYFCQQYNYFPGTFGQGTKLEIK
